Sequences and labels used below:
B3: HspB6 R27A (natural protein, human, UniProt O14558 1-160, looked up)
chain: MEIPVPVQPSWLRRASAPLPGLSAPGALFDQRFGEGLLEAELAALCPTTLAPYYLRAPSVALPVAQVPTDPGHFSVLLDVKHFSPEEIAVKVVGEHVEVHARHEERPDEHGFVAREFHRRYRLPPGVDPAAVTSALSPEGVLSIQAAPASAQAPPPAAAK
notes: also called R/A HspB6; R/A mutant of HspB6; source: E. coli BL21(DE3) pLysS, purified (ammonium sulfate, HiTrap Phenyl-Sepharose, Superdex 200)
B6: HspB6 Δ26–30 (natural protein, human, UniProt O14558 1-160, looked up)
chain: MEIPVPVQPSWLRRASAPLPGLSAPQRFGEGLLEAELAALCPTTLAPYYLRAPSVALPVAQVPTDPGHFSVLLDVKHFSPEEIAVKVVGEHVEVHARHEERPDEHGFVAREFHRRYRLPPGVDPAAVTSALSPEGVLSIQAAPASAQAPPPAAAK
notes: also called Δ HspB6; Δ mutant of HspB6; source: E. coli BL21(DE3) pLysS, purified (ammonium sulfate, HiTrap Phenyl-Sepharose, Superdex 200)

The target in series [1] is T1, wild-type human small heat shock protein HspB6 (human, UniProt O14558 1-160).
T1 construct: HspB6, human, UniProt O14558; WT cDNA in pET22b or pET23a, parent of the full-size mutants; No tag is named; also called WT HspB6; source: E. coli BL21(DE3) pLysS, purified (ammonium sulfate, HiTrap Phenyl-Sepharose, Superdex 200)
T1 sequence (looked up): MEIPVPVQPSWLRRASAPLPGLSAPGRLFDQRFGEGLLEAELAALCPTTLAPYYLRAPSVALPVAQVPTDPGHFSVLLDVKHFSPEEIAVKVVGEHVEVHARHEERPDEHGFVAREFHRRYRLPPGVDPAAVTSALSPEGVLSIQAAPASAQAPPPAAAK
In words: SEC; equimolar mixture (30–40 µM each), reduced, preincubated 1 h at 42 °C in buffer B (20 mM Tris-acetate, 150 mM NaCl, 0.1 mM EDTA, 15 mM mercaptoethanol); Superdex 200 HR 10/30; fractions on SDS gels; correlation coefficient and molar ratio from band intensities. As to conditions: both partners purified. In general terms: In gel filtration, larger molecules generally elute earlier.

Series [2] deals with the molecule itself. In words: SEC; isolated protein on Superdex 200 HR 10/30 in buffer B; apparent molecular weight against standards.
Series [3] addresses T2, wild-type human small heat shock protein HspB6 (human), O14558.
T2 chain: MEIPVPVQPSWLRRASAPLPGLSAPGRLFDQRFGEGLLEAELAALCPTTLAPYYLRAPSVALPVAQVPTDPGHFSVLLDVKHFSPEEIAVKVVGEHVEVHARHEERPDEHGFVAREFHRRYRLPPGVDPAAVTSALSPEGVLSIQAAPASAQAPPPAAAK
Described as above. As to conditions: remark: other sources report otherwise.

The series “HspB6 R27A” deals with B3. Put plainly: SEC; equimolar mixture (30–40 µM each), reduced, preincubated 1 h at 42 °C in buffer B (20 mM Tris-acetate, 150 mM NaCl, 0.1 mM EDTA, 15 mM mercaptoethanol); Superdex 200 HR 10/30; fractions on SDS gels; correlation coefficient and molar ratio from band intensities. The note with it: both partners purified.
The series “HspB6 Δ26–30” has as its target B6. The series is described as above. The note with it: both partners purified.

B1: HspB5 Δ21–25 (natural protein, human, UniProt P02511 1-175, looked up)
chain: MDIAIHHPWIRRPFFPFHSPQFFGEHLLESDLFPTSTSLSPFYLRPPSFLRAPSWFDTGLSEMRLEKDRFSVNLDVKHFSPEELKVKVLGDVIEVHGKHEERQDEHGFISREFHRKYRIPADVDPLTITSSLSSDGVLTVNGPRKQVSGPERTIPITREEKPAVTAAPKK
notes: also called Δ HspB5; Δ mutant of HspB5; source: E. coli BL21(DE3) pLysS, purified (ammonium sulfate, HiTrap Q, Superdex 200)
For B1, in series [1], the correlation coefficient was found to be 0.98. Besides, the binding result in series [2] is “binds”.

B2: wild-type human small heat shock protein HspB6, O14558 1-160 (natural protein)
chain: MEIPVPVQPSWLRRASAPLPGLSAPGRLFDQRFGEGLLEAELAALCPTTLAPYYLRAPSVALPVAQVPTDPGHFSVLLDVKHFSPEEIAVKVVGEHVEVHARHEERPDEHGFVAREFHRRYRLPPGVDPAAVTSALSPEGVLSIQAAPASAQAPPPAAAK
Regarding B2, the stoichiometry N in series [3] worked out at 2.

Take B3: the binding result in series [2] is “binds”.

B4: wild-type human small heat shock protein HspB5 (natural protein, UniProt P02511 1-175, looked up)
chain: MDIAIHHPWIRRPFFPFHSPSRLFDQFFGEHLLESDLFPTSTSLSPFYLRPPSFLRAPSWFDTGLSEMRLEKDRFSVNLDVKHFSPEELKVKVLGDVIEVHGKHEERQDEHGFISREFHRKYRIPADVDPLTITSSLSSDGVLTVNGPRKQVSGPERTIPITREEKPAVTAAPKK
notes: WT cDNA in pET22b or pET23a, parent of the full-size mutants; No tag is named; Forms large homooligomers; also called WT HspB5; source: E. coli BL21(DE3) pLysS, purified (ammonium sulfate, HiTrap Q, Superdex 200)
B4: the correlation coefficient was 0.99 with HspB6 R27A, 0.99 in series [1] and 0.98 in the series with HspB6 Δ26–30. In series [1], the “stoichiometry N” value was about 2 HspB5/HspB6 molar ratio. In addition, in series [2], the binding result is listed as “binds”.

B5: HspB5 R22A (natural protein, human, UniProt P02511 1-175, looked up)
chain: MDIAIHHPWIRRPFFPFHSPSALFDQFFGEHLLESDLFPTSTSLSPFYLRPPSFLRAPSWFDTGLSEMRLEKDRFSVNLDVKHFSPEELKVKVLGDVIEVHGKHEERQDEHGFISREFHRKYRIPADVDPLTITSSLSSDGVLTVNGPRKQVSGPERTIPITREEKPAVTAAPKK
notes: also called R/A HspB5; R/A mutant of HspB5; source: E. coli BL21(DE3) pLysS, purified (ammonium sulfate, HiTrap Q, Superdex 200)
Regarding B5, the correlation coefficient in series [1] was 0.99. Moreover, the binding result in series [2] is “binds”.

Turning to B6, the binding result in series [2] was “binds”.

Broadly, the stoichiometry N is a count of units in the complex or per binding partner.

The record behind these values is article PMC7352286, “The Heterooligomerization of Human Small Heat Shock Proteins Is Controlled by Conserved Motif Located in the N-Terminal Domain” (International Journal of Molecular Sciences, 2020).
